Results from the DeepSol protein solubility set.

Experiment: soluble on expression in E. coli; label from the status in PepcDB or PDB records

Sequence	soluble on expression in E. coli
MVAKQISKADIHLLRVFCIVVDSQGFSNAQVALNVATSTISRQISELETRLGMRLCDRGRSGFRVTEKGETVYQAAQKLFGALGEFQETVDGSRGRLFGHLALGIIENWASNTSAPIVQALSRFTDLAPDVTIELHSLAPDDIEFAVLDGRVPIGIGVFHSPKPGILYTKVCEERVCLYCGSGHPLFHMTNLEDEERVLRQAQFAKRAYLNEDVVAPKTRNLPSNATAHQMEAIALLILTDKYVGYLPSYFAEEWVAKGRMKIVAGGSFDRPVSVQTATRRGMKLNSVGRTFLDILTAEAVKQGG	not soluble
MSLKKTQQKEIENVTNITGVRQIELWRRDDLQHPRLDEVAEEVPVALVYNGISHVVMMASPKDLEYFALGFSLSEGIIESPRDIFGMDVVPSCNGLEVQIELSSRRFMGLKERRRALAGRTGCGVCGVEQLNDIGKPVQPLPFTQTFDLNKLDDALRHLNDFQPVGQLTGCTHAAAWMLPSGELVGGHEDVGRHVALDKLLGRRSQEGESWQQGAVLVSSRASYEMVQKSAMCGVEILFAVSAATTLAVEVAERCNLTLVGFCKPGRATVYTHPQRLSNEGHHHHHH	soluble
MDSHVGEVDIFQQCKYIHEVELVNMKLQMRILETHIETKDRLLRNLEDIIDEQESRIANMEDFIQGRATSYTNRSNMLKGISVLSLDFGNLSEENLRLKNALSQMQKVARVNELLETDEDYESDMTSNEDRFALSRDSSCSVPRSVSPQPTGDVIKPYPQMVQSMREEGHWKKLQRCAEELKTEKDELKRLALDTKDAFNVCMAEMRMMLTSKTTDFFRVLIERYKAEMEKRKQLHNQLVELNGNIRVFYRIRPQLASETDNQKPVVVIDEMDNGVVHVSNTTGTRKTSAGADKVIPTDFSQDQIFNEVSPIITSCIDGYNVCIFAYGHTGSGKTYTMDGPVTMPGINQRAIMQLFETAKERTGDIKYDIKVAMMEIYNEKIRDLLNTSNTNLAIRQTEEGRSSIPGLEEVSVNSAEEVTETLARGRKNKAVAATEANIESSRSHVIVRVLVSATNLITKATTVGRLNLVDLAGSERVSQTNATGQLLKEAQAINKSLSELGNVVLALRQNQKHIPFRNCQLTRILEDSLNGDSKTLVIVHLSPDAKSLNESISSVNFAEKIGQVFTKSGTMKREPTRRSMTGISSGQRREIPASPRK	soluble
MGSDKIHHHHHHMSLIERAADKLVKNDMNGFMPGSVSQHDSREGIGPDSLFSSDGVPGKKTGHGRIIKEEVGADRINKAADTKKTVKRIEVDLENLHRKGVVTLHHTKSEIAEQFRLIKRPLLANAFNPDSGVKNGNLIMVTSSLSGEGKSFCSLNLAMSIAMEMDHRVLLVDADVARPSIPATLGFSPEEPGLLDMLRDSQLSISDVMMKTNIKKLTLIPAGRRHTHATELLASQSMHSILVELAQRYHDRVVIFDSPPLLLTSEARVLASQMGQIVLVVEAERTTQQTVKEALQQIEACDVVNLIYNKARAHGSTEYYGYY	not soluble
MSAETATIPEVSNQETKAEKVIADSLEAKKDESAAVEINGSSTHENGDTNIEKKTEEPVVEAKVSEEPATTSETPAAQVTESQKDEKTDDAPAEPAEVAVEAAKEEPVVEEKKEDAPEPVVTEEKKSEEAPAPEEKKSEEVVAAEEKKEPAAVVEEKKEVPETPVVEDKKEEAPASSEEKKDEPVVNTEEKKDAAEAPAADEESEAAEEKVAETTVAPVATPSGRGRGRGRGRPPGPNATPKAAASEKKRAAKPKAAVNPESIAASRPRRSTSNRIDYANSDTSTVLAEVDDEIPGKLFRGRKPPRGKITKYVSDSDGAPSDEDDVDFGKKKKGAPSTRGRGRPPSSNRPTRAAATKRSAKDASDESNEDEIEYDDKSDEDVSPRKKARGAPARAAADDEDDEGEEMDASEEVEA	not soluble
MGSDKIHHHHHHMIKKSDYPRYIQMLKRRPEFSGFTPDEFNQLEQQMRIKEYPKGQLLFDQADTRSRFYFVISGLLRSERIDETGDFSFYSFIAENKGFPYRGLFHDHEYAYAVNTMTPAVVASFPMAEFENLLTRNSEMMKRVVVEMGQIINENEDQLQQMVTSSASDRVRNALKILGRKLGNQLAGDRWFVPYAITLIELAKMAGTTRETASQVVQRLEADGQIIYEHKHFTIFIK	not soluble
MAKAQLSQNGEARAWQRMLSGRRLDLLNPSPFDIEIEDIAHGLARVARWNGQTQGEYAYSVAQHSLLVEQIFQKLFPQSQNNECLCALLHDAPEYVIGDIISPFKAVIGKQYELIEKRIQDAIHMRFSLPVAPSQKLLKKIKQADRIAAFHESIILAGFNTEEALRYFGHPNNISPEGLNLQPCSTTKIENAFLKRFHDLDVERLH	not soluble
MKFTIMSKGDQSSDTLASTMKEYLLDFGFIMDEKEPDIVISVGGDGTLLYAFHRYYNRLDETAFVGVHTGHLGFYADWLPTEVEKLVIAIAKTPFQVVEYPLLEVIIRYVNGSKESQYLAMNEATVKSAEGTLVTEVEIRGEYFETFRGDGLCISTPSGSTAYNKALGGAIIHPSIEAIQIAEMASINNRVFRTVGSPLVLPKHHTCVLKPAAGMNLQITVDHLTMVHQDVKSIQYRVANEKVRFVRFRPFPFWKRVRDSFVADKLEHHHHHH	not soluble
MGSDKIHHHHHHVDIQQIRNATLVVNYANQVFLIDPFLGEKGSLPPFGETPNAVPNPLVDLPVDVSTLLDPDAIFVTHLHADHFDETAKEILPKQIPLYAQNQADAATIREAGFTNVSSFENGLALGDIRVYHTSGRHGVGEIGQRMGTVSGLVLTHPDEPTLYIAGDTIWCEEVETAIEQHAPDIIIVNSGAAQFLTGEPITMSQRDLLAVHQAAAEATIIVSHLESVNHCLLRRDMIADFLAAHHLSAHFLIPDDGETISF	not soluble
MAHHHHHHMYLYHSNKCAIKKGIPFFRNVASICFLRKAQNGEEVKRRKVFCSAKFISTISEGRETGCGQANTDQPSTPLGSYTEKSSYKDIKIVENEKEGNDAAEEINQNDIIAVDFEGTNLGKYGKVCIMQVYTEERTREGTPPQSECISREKYYIFDLLKMSVIKSVKKIIENKKTLKLVHDCREDSSALYNQLGIKFENVYDTSRAHMLLMEKNKSNDIYQVSFLQLLNDYLGIKDECLSSIKKEMYKNEKIWQVRPLSKMSIIYALKNVKYLFPLYRIFDNMLPKKIVLEKSKDFVNYCLINSRYKLPVDLAKRGNIVQAMLVSKSMLNCVFKLNSTRKGIACTPSSVAQFRDVKVGDVVLCVVSNKSIDQKILYLCKHDDVFDYWNLKERPRGKFKPSIHESATDPMIQFCDEEQPA	not soluble
DKKIMVIVNTVDKAITLYEKLRDLSPCLIHSRFKIGDRDEKLRKECNIIIATQVIEVGVNISSEVMITEQAPITSIVQRVGRLLRDNKKDKGELYIWKSGNYYPYDKDEVENTIKELESKKNDISL	not soluble
MISNKNIFNRFQQWMDTFLMLELQWFLIYANVANQMIVYGCCQMSKKTSNETPKVFLMLGHFFVSLKYPGATETKNWSKKLPFHYFHKYV	not soluble
MGSDKIHHHHHHMISMTQNNVEKWGTYEITLKGKAEGNPFTDVEIKAVFTSEAGDSFEVEGFYDGEDTFKIRFMPNRTGLWKYEVRSDIKDLDGMKGEFLCVDPSEGNHGPVRVCNTYHFCYEDGTPYHPFGTTLYAWVHQREELIQQTLESLRNSPFNKVRMCVFPKYYAYNREEPPMLPMSWREEDGRYQVEFNVKFFQHFERLVKELMDMGIEADVILFHPYDKWGFCSMPEEVDKAYLRYLIARISSYRNVWWSMANEYDLIKPQKDWDGYFHFIVEKDPYNHLRSVHQCFKFYDHTKPWITHASIQWQGSLRSWSGEPEIDIGINLIPKWREMYKKPVIIDECGYEGNIEYGWGNLPPQEMMNRFWEGVTSGGYVTHGETYYSEDEVLWWSKGGRLKGESPKRIAFLRTIIEEAPPFLKPIKLDPMMDWDVHCIGKEGEYYLIYFDINRPVKRTLKLPEGKYRVDLVDCWETEIHSLGIFQGQVVIRLPGKSYVALRIQKMENNDDWIILREDAKL	not soluble
DTIRWATEQAIANGTGEREYIKKLEPMLKELGWWGKAKDENGNEVQLGSPRRLRTILRTNKITAYHAARYAQQMENVDEQPYWRYVAVNDSRTRASHLALHGKIYRADDPIWQTMYPPNDWGCRCRVE	not soluble
MDLFCLGRDLQTRPQSKEALSAIILAPMEWDLSDLYSGPQDPRILQDLEAALALAQGLDPQGLLDPKGAQDLLERYEKALELAYKPLNYASLYFATRTQDPEAKALLDRVRSRFTEVRNRLVPLEVALRKLPEEAFQRLLAHPGLADLGHFLKRQRAYAPHTLSEREEELLNLKALVGRSAWSQFYTEYTGRFRFRVGERELTEMEVRALRRDPDPEVRREAHRALYGKLLAEAPTLSAVFNAVYLDYLQDLRLRGYRHPLEPVALRDEVEVREIEALLEATKAHYPLVERYYRWKAGRLGREKTPSEDLLAPLGEKPKVPFAEARALVLEAFRRFSPELAEIAREFFEKRWIDVYPRPGKRGGAFCSGGLPSTHPYILLNHTDDLDSAHTLAHELGHGVHFYLARKQRLLNFGASTPLAETASVFAEILLDDLLLERLSGEEKTLLLAERVEDAINTLFRQVMYTFFEQRSLEARKEAALSPEAFHALWDEEQRRLYGEAVAWTELDRAAWAGIPHFVHYRFYTYSYALGYLVVLALYGKYREEGEAFVPKYLRILEAGESASPKEILAEAGVELGSEAFFRYGFGVLESWLKALP	soluble
GMKIEHVALWTTNLEQMKQFYVTYFGATANDLYENKTKGFNSYFLSFEDGARLEIMSRTDVTGKTTGENLGWAHIAISTGTKEAVDELTEKLRQDGFAIAGEPRMTGDGYYESVVLDPEGNRIEITW	soluble
MVRVVIESELVRTEKELPNSLKLRQFKDRLYHVTGVEPEDMEIVVKRQYDNKEIYSTKKGGAYSNEDEDANFLKGEEELIVVVTDSNAQSISNQLATQAEGIPSMEVISEEDYLRRDQSVLRWKMAHGYGRFNAAQQSQRAALAKQDEAYAREQLTAAIGRHCRVTVDGSAPREAILRYVGPLPLDVMGTWCGVEFPEAAGKNDGRINGVTLFGPVAPGHGSFVRPRAVEILSKDEESAEVEDVHDDVESDDEI	soluble
MRILVLGVGNILLTDEAIGVRIVEALEQRYILPDYVEILDGGTAGMELLGDMANRDHLIIADAIVSKKNAPGTMMILRDEEVPALFTNKISPHQLGLADVLSALRFTGEFPKKLTLVGVIPESLEPHIGLTPTVEAMIEPALEQVLAALRESGVEAIPRSDS	soluble
MKKHHHHHHLVPRGSIPHLILELLKCEPDEPQVQAKIMAYLQQEQANRSKHEKLSTFGLMCKMADQTLFSIVEWARSSIFFRELKVDDQMKLLQNCWSELLILDHIYRQVVHGKEGSIFLVTGQQVDYSIIASQAGATLNNLMSHAQELVAKLRSLQFDQREFVCLKFLVLFSLDVKNLENFQLVEGVQEQVNAALLDYTMCNYPQQTEKFGQLLLRLPEIRAISMQAEEYLYYKHLNGDVPYNNLLIEMLHAKRA	soluble
MYFPSGSDPFAVGEDLGVWAPADHQRIIAKLTTGLGVLFYHTKAIHLEPLPETMLDDAKASLVPDLSLVDNESSETPIIIEVCKTAGLKGDLRKVIQLIDDGIYGIREGFVYNYKTQQWLRYRFGDGGLTTESSFSEILNLDLNTFL	not soluble
MSLMIRAITIFVTNYSKISDYTEKLSKLNDNNIWSKRISLPPTPIDLSLSKLIELLPTTHSEIIFSLINLQEKDKRLREIKDILKSDKRIYVHVLVKTTDNLKDLAKLIISLEPEEASRFALLFNQDFLLTPYFPTSSANTVYDSFGISLLYVDEFKQGKINEALSKADTIGRQLEKKLNIKYLGIDASLSPWMESSVGEIVESRSKKMFDISNLSAVAEINREIFEGVWRNRVNPIGFSELMLPIAEDNLLRERVKEGSLTLKDLLLMSYVCVAGIDMVGIYSDLVTYENILKSVYYIQYTKRKPYGVRMIPTNGSPVLTKMFGEIPEVKVVEGHHHHHH	soluble
